# According to patent US20250145711A1 (Janssen / Centocor, published 2025):
# Where a chain is given by its changes, count along the chain named.
# B1: PS3B926 (bispecific antibody, human IgG1, kappa, lambda, L234A L235A)
# heavy 1: EVQLVESGGGLVKPGGSLRLSCAASGFTFSRYNMNWVRQAPGKGLEWVSSISTSSNYIYYADSVKGRFTFSRDNAKNSLDLQMSGLRAEDTAIYYCTRGWGPFDYWGQGTLVTVSSASTKGPSVFPLAPSSKSTSGGTAALGCLVKDYFPEPVTVSWNSGALTSGVHTFPAVLQSSGLYSLSSVVTVPSSSLGTQTYICNVNHKPSNTKVDKKVEPKSCDKTHTCPPCPAPEAAGGPSVFLFPPKPKDTLMISRTPEVTCVVVSVSHEDPEVKFNWYVDGVEVHNAKTKPREEQYNSTYRVVSVLTVLHQDWLNGKEYKCKVSNKALPAPIEKTISKAKGQPREPQVYTLPPSREEMTKNQVSLTCLVKGFYPSDIAVEWESNGQPENNYKTTPPVLDSDGSFLLYSKLTVDKSRWQQGNVFSCSVMHEALHNHYTQKSLSLSP
# light 1: DIQMTQSPSSLSASVGDRVTITCRARQSIGTAIHWYQQKPGKAPKLLIKYASESISGVPSRFSGSGSGTDFTLTISSLQPEDFATYYCQQSGSWPYTFGQGTKLEIKRTVAAPSVFIFPPSDEQLKSGTASVVCLLNNFYPREAKVQWKVDNALQSGNSQESVTEQDSKDSTYSLSSTLTLSKADYEKHKVYACEVTHQGLSSPVTKSFNRGEC
# heavy 2: not shown
# light 2: not shown
# notes: FAB-A: CD3B2183 (CD3W245); FAB-B: PSMB891
# B2: PS3B928 (bispecific antibody, human IgG1, kappa, lambda, L234A L235A)
# heavy 1: B1 heavy 1
# light 1: B1 light 1
# heavy 2: not shown
# light 2: not shown
# notes: FAB-A: CD3B2183 (CD3W245); FAB-B: PSMB892
# B3: PS3B932 (bispecific antibody, human IgG1, kappa, lambda, L234A L235A)
# heavy 1: B1 heavy 1
# light 1: B1 light 1
# heavy 2: EVQLVESGGGLVQPGGSLRLSCAASGFTFSSYAMSWVRQAPGKGLEWVSAISGGIGSTYYADSVKGRFTISRDNSKNTLWLQMNSLRAEDTAVYYCAKDGVGATPYYFDYWGQGTLVTVSSASTKGPSVFPLAPSSKSTSGGTAALGCLVKDYFPEPVTVSWNSGALTSGVHTFPAVLQSSGLYSLSSVVTVPSSSLGTQTYICNVNHKPSNTKVDKKVEPKSCDKTHTCPPCPAPEAAGGPSVFLFPPKPKDTLMISRTPEVTCVVVSVSHEDPEVKFNWYVDGVEVHNAKTKPREEQYNSTYRVVSVLTVLHQDWLNGKEYKCKVSNKALPAPIEKTISKAKGQPREPQVYTLPPSREEMTKNQVSLTCLVKGFYPSDIAVEWESNGQPENNYKTTPPVLDSDGSFFLYSRLTVDKSRWQQGNVFSCSVMHEALHNHYTQKSLSLSPG
# light 2: QSVLTQPPSVSAAPGQKVTISCSGSSSNIGNNYVSWYQQLPGTAPKLLIYDNNKRPSGIPDRFSGSKSGTSATLGITGLQTGDEADYYCGTWDSSLSAYVFGTGTKVTVLGQPKAAPSVTLFPPSSEELQANKATLVCLISDFYPGAVTVAWKADSSPVKAGVETTTPSKQSNNKYAASSYLSLTPEQWKSHRSYSCQVTHEGSTVEKTVAPTECS
# notes: FAB-A: CD3B2183 (CD3W245); FAB-B: PSMB895
# B4: PS3B935 (bispecific antibody, human IgG1, kappa, lambda, L234A L235A)
# heavy 1: B1 heavy 1
# light 1: B1 light 1
# heavy 2: B3 heavy 2 with I55S, W80Y, T91S
# light 2: B3 light 2 with N31I, Y99V, T103G, V107L
# notes: FAB-A: CD3B2183 (CD3W245); FAB-B: PSMB898
# B5: PS3B933 (bispecific antibody, human IgG1, kappa, lambda, L234A L235A)
# heavy 1: B1 heavy 1
# light 1: B1 light 1
# heavy 2: B3 heavy 2 with I55S, W80Y, T91S
# light 2: B3 light 2
# notes: FAB-A: CD3B2183 (CD3W245); FAB-B: PSMB897
# B6: PS3B934 (bispecific antibody, human IgG1, kappa, lambda, L234A L235A)
# heavy 1: B1 heavy 1
# light 1: B1 light 1
# heavy 2: B3 heavy 2
# light 2: B3 light 2 with N31I, Y99V, T103G, V107L
# notes: FAB-A: CD3B2183 (CD3W245); FAB-B: PSMB896
# B7: PS3B925 (bispecific antibody, human IgG1, kappa, lambda, L234A L235A)
# heavy 1: B1 heavy 1
# light 1: B1 light 1
# heavy 2: B3 heavy 2 with A23T, T28I, I55Y, S57A, T58P, S63T, W80Y, Y110D, T115I
# light 2: B3 light 2 with Y50F
# notes: FAB-A: CD3B2183 (CD3W245); FAB-B: PSMB899
# B8: PS3B915 (bispecific antibody, human IgG1, lambda, L234A L235A)
# heavy 1: QVQLQQSGPRLVRPSQTLSLTCAISGDSVFNNNAAWSWIRQSPSRGLEWLGRTYYRSKWLYDYAVSVKSRITVNPDTSRNQFTLQLNSVTPEDTALYYCARGYSSSFDYWGQGTLVTVSSASTKGPSVFPLAPSSKSTSGGTAALGCLVKDYFPEPVTVSWNSGALTSGVHTFPAVLQSSGLYSLSSVVTVPSSSLGTQTYICNVNHKPSNTKVDKKVEPKSCDKTHTCPPCPAPEAAGGPSVFLFPPKPKDTLMISRTPEVTCVVVSVSHEDPEVKFNWYVDGVEVHNAKTKPREEQYNSTYRVVSVLTVLHQDWLNGKEYKCKVSNKALPAPIEKTISKAKGQPREPQVYTLPPSREEMTKNQVSLTCLVKGFYPSDIAVEWESNGQPENNYKTTPPVLDSDGSFLLYSKLTVDKSRWQQGNVFSCSVMHEALHNHYTQKSLSLSPG
# light 1: QSALTQPASVSGSPGQSITISCTGTSSNIGTYKFVSWYQQHPDKAPKVLLYEVSKRPSGVSSRFSGSKSGNTASLTISGLQAEDQADYHCVSYAGSGTLLFGGGTKLTVLGQPKAAPSVTLFPPSSEELQANKATLVCLISDFYPGAVTVAWKADSSPVKAGVETTTPSKQSNNKYAASSYLSLTPEQWKSHRSYSCQVTHEGSTVEKTVAPTECS
# heavy 2: not shown
# light 2: not shown
# notes: FAB-A: CD3B891 (CD3B376 - K477); FAB-B: PSMB892
# B9: PS3B919 (bispecific antibody, human IgG1, lambda, L234A L235A)
# heavy 1: B8 heavy 1
# light 1: B8 light 1
# heavy 2: B3 heavy 2
# light 2: B3 light 2
# notes: FAB-A: CD3B891 (CD3B376 - K477); FAB-B: PSMB895
# B10: PS3B920 (bispecific antibody, human IgG1, lambda, L234A L235A)
# heavy 1: B8 heavy 1
# light 1: B8 light 1
# heavy 2: B3 heavy 2 with I55S, W80Y, T91S
# light 2: B3 light 2
# notes: FAB-A: CD3B891 (CD3B376 - K477); FAB-B: PSMB897
# B11: PS3B912 (bispecific antibody, human IgG1, lambda, L234A L235A)
# heavy 1: B8 heavy 1
# light 1: B8 light 1
# heavy 2: B3 heavy 2 with A23T, T28I, I55Y, S57A, T58P, S63T, W80Y, Y110D, T115I
# light 2: B3 light 2 with Y50F
# notes: FAB-A: CD3B891 (CD3B376 - K477); FAB-B: PSMB899
# B12: PS3B921 (bispecific antibody, human IgG1, lambda, L234A L235A)
# heavy 1: B8 heavy 1
# light 1: B8 light 1
# heavy 2: B3 heavy 2
# light 2: B3 light 2 with N31I, Y99V, T103G, V107L
# notes: FAB-A: CD3B891 (CD3B376 - K477); FAB-B: PSMB896
# B13: PS3B922 (bispecific antibody, human IgG1, lambda, L234A L235A)
# heavy 1: B8 heavy 1
# light 1: B8 light 1
# heavy 2: B3 heavy 2 with I55S, W80Y, T91S
# light 2: B3 light 2 with N31I, Y99V, T103G, V107L
# notes: FAB-A: CD3B891 (CD3B376 - K477); FAB-B: PSMB898
# Biological target: T1, human PSMA on prostate cancer cell lines (22RV1, C4-2B) (human, UniProt Q04609 1-750)
# T1 construct: also called PSMA-expressing cell lines
# T1 sequence (Q04609 whole entry): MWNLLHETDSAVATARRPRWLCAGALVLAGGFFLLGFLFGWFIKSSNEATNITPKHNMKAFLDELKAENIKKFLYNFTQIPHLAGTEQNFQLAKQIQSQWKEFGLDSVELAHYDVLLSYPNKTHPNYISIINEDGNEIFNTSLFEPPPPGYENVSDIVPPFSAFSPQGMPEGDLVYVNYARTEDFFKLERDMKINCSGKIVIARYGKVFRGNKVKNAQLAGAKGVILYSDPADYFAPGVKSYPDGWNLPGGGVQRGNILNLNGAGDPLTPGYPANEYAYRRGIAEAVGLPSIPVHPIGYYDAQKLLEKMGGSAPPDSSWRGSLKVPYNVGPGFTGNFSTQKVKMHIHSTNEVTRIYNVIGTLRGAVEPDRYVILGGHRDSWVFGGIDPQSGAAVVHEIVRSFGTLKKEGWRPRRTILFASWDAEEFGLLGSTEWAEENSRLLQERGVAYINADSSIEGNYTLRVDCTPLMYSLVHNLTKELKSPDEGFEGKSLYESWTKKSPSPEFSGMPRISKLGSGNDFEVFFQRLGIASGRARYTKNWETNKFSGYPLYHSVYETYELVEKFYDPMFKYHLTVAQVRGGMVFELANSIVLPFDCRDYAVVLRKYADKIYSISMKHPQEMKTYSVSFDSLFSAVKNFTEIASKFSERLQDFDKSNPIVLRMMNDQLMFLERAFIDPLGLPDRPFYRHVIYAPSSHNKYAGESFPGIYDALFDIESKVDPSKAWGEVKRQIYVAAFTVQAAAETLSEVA
# Assay: flow cytometry on 22RV1 cells
# Experimental: (§1) 22RV1 and C4-2B cells were plated at 50,000 cells per well in 50 μl of assay medium (RPMI, 10% HI FBS) in V bottom plates. Serial dilutions of antibodies were prepared in assay medium with 50 μl of antibody dilutions added to the plates containing cells. The plates were incubated for 60 min at 37° C. at which time 100 μl of staining buffer (Becton Dickinson Cat #554657) was added to all wells of each plate. The plates were centrifuged at 300×G for 5 minutes and the medium was removed from the wells. 200 μl of staining buffer was added to all wells of each plate. The plates were centrifuged at 300× G for 5 minutes and the medium was removed from the wells. 50 μl of 2 μg/ml AlexaFluor647-labeled goat anti-human Fc was added to all wells of the plates and the plates were incubated for 30 minutes at 4° C. 150 μl of staining buffer was added to all wells of each plate. The plates were centrifuged at 300× G for 5 minutes and the medium was removed from the wells.
row,EC50 [nM],Binder
1,2.9,B1
2,60,B2
3,48.7,B3
4,39.5,B4
5,60,B5
6,4.96,B6
7,21.2,B7
8,60,B8
9,24.9,B9
10,60,B10
11,54,B11
12,4.03,B12
13,34.7,B13

# Biological target: T1, human PSMA on prostate cancer cell …
# Assay: flow cytometry on C4-2B cells
# Experimental: as §1
row,EC50 [nM],Binder
1,4.55,B1
2,60,B2
3,60,B3
4,8.22,B4
5,60,B5
6,11,B6
7,11.7,B7
8,60,B8
9,23.3,B9
10,60,B10
11,36.8,B11
12,6.44,B12
13,44.1,B13

# Biological target: T2, recombinant human PSMA (human, UniProt Q04609 44-750)
# T2 construct: also called hu PSMA; prostate-specific membrane antigen
# T2 sequence (Q04609 44-750 limits assumed): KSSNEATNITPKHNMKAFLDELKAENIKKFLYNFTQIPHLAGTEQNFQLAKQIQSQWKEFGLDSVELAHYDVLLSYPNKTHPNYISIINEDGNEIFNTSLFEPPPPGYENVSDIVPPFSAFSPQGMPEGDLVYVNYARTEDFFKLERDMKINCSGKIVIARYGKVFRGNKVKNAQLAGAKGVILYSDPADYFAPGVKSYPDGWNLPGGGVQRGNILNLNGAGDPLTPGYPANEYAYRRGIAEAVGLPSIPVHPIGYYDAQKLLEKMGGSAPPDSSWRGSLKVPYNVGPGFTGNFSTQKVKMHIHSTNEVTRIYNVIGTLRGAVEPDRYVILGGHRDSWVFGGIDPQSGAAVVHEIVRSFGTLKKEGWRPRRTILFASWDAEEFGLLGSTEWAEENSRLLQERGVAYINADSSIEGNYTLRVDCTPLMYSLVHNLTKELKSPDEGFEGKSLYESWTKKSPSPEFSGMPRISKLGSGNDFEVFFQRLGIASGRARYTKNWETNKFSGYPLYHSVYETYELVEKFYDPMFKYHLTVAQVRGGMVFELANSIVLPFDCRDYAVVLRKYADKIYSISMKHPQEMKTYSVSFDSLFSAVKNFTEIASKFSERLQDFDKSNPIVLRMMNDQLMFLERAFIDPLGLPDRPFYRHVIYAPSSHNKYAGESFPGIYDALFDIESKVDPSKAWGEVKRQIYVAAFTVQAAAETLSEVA
# Assay: SPR (Biacore 8K), antibody captured on anti-Fc, PSMA in solution
# Experimental: The binding affinity of anti-PSMA to the recombinant human, cynomolgus or mouse PSMA was determined by surface plasmon resonance (SPR) using a Biacore 8K instrument\. […] The association and dissociation were monitored for 3 and 15 minutes, respectively, using a flow rate of 50 μL/min. Raw binding data was referenced by subtracting the analyte binding signals from blanks and analyzed using a 1:1 Langmuir binding model using the Biacore Insight evaluation software to obtain the kinetics which were used to calculate the binding affinity. The anti-PSMA were captured using an anti-human Fc antibody and the antigens were injected in solution.
row,Kd [nM],Binder
1,≤ 0.253,B1
2,2.37,B2
3,0.787,B3
4,0.454,B4
5,1.44,B5
6,≤ 0.0873,B6
7,0.169,B7
8,1.89,B8
9,0.823,B9
10,1.35,B10
11,0.174,B11
12,≤ 0.0864,B12
13,0.41,B13
